Like-named read-outs stand apart in the source and are kept apart here.
What was measured:
[1] = molecular target: T1, biotinylated recombinant human Fc(gamma) receptor I (human, UniProt P12314 16-288, biotinylated (site not stated)); test: ELISA, fusion protein coated, biotinylated rhFc(gamma)RI at 3000 ng/mL, pH 7.4
T1 construct: Bought reagent, used as surrogate for canine/feline Fc(gamma)RI; also called rhFc(gamma) receptor I; Fc(gamma)RI
Method: The binding of insulin-Fc fusion proteins to the Fc(gamma) receptor I at pH 7.4 was conducted using an ELISA assay as follows. Since neither canine nor feline Fc(gamma) receptor I was not commercially available, human Fc(gamma) receptor I (i.e., rhFc(gamma) receptor I) was used as a surrogate mammalian receptor. Insulin-Fc compounds were diluted to 10 μg/mL in sodium bicarbonate buffer at pH 9.6 and coated on Maxisorp (Nunc) microtiter plates overnight at 4° C., after which the microplate strips were washed 5 times with PBST (PBS/0.05% Tween-20) buffer and blocked with Superblock blocking reagent (ThermoFisher). Serial dilutions of biotinylated rhFc(gamma) receptor I (recombinant human Fc(gamma)R-I; R&D Systems) were prepared in PBST/10% Superblock buffer from 6000 ng/mL to 8.2 ng/mL and loaded at 100 μL/well onto the microplate strips coated with insulin-Fc fusion protein. The microtiter plate was incubated for 1 hour at room temperature after which the microplate strips were washed 5 times with PBST and then loaded with 100 μL/well of streptavidin-HRP diluted 1:10000 in PBST/10% Superblock buffer. After incubating for 45 min, the microplate strips were washed again 5 times with PBST. TMB was added to reveal the bound Fc(gamma) receptor I proteins and stopped with ELISA stop reagent (Boston Bioproducts). The plate was read in an ELISA plate reader at 450 nm, and the OD values (proportional to the binding of rhFc(gamma) receptor I to insulin-Fc protein) were plotted against log concentrations of rhFc(gamma) receptor I added to each well to generate binding curves using GraphPad Prism software.
Finally, select compounds were tested for their likelihood to interact with the immune system by measuring their Fc(gamma) receptor binding activity according to the procedure of Example 8. Table 19 compares the Fc(gamma) receptor I binding of these insulin-Fc fusion proteins with the Fc(gamma) receptor binding of the insulin-Fc fusion protein of SEQ ID NO: 52.

human insulin receptor [2] = molecular target: T2, human insulin receptor (human, UniProt P06213 28-1382); test: competition with biotinylated RHI on IM-9 cells, flow cytometry, 4 C
T2 construct: whole, on cells; Endogenous receptor on IM-9 cells; also called IR
Method: (§1) 40 μL of an IM-9 cell suspension (8×10⁶ cells/mL) was then added to each well by multichannel pipette, mixed again gently and incubated on ice for 30 min to allow competitive binding on the insulin receptor on IM-9 cells. Cells were then washed twice with 275 μL of ice-cold FACS wash buffer (HBSS/2 mM EDTA/0.1% Na-azide+0.5% horse serum) by centrifuging the V-bottom plate at 3000 rpm for 3 min and aspirating the supernatant. Cells were then resuspended in 40 μL of FACS staining medium containing 1:100 diluted Streptavidin-PE (Life Technologies) for 20 min on ice. Cells were then washed once with 275 μL of ice-cold FACS buffer and finally fixed with 3% paraformaldehyde for 10 min at room temp. Cells were then washed once with 275 μL of ice-cold FACS buffer and resuspended in 250 μl of FACS buffer for analysis.
The V-bottom plates containing cells were then analyzed on a Guava 8-HT flow cytometer (Millipore). Biotinylated-RHI binding to insulin receptor was quantitated by the median fluorescence intensity (MFI) of the cells on the FACS FL-2 channel for each concentration of the test compound. Control wells were labeled only with biotinylated-RHI and were used to calculate the percent (%) inhibition resulting from each test compound concentration. The % inhibition by test compounds of biotinylated-RHI binding on IM-9 cells was plotted against log concentrations of the test compound, and the resulting IC50 values were calculated using GraphPad Prism (GraphPad Software, La Jolla, CA) for the test compounds. Lower IC50 values of the test compound therefore indicate greater levels of biotinylated-RHI inhibition at lower concentrations indicating stronger binding of the insulin-Fc fusion protein to the insulin receptor. A control compound, such as unlabeled recombinant human insulin (RHI) was also used as an internal standard to generate an RHI IC50 against which a given compound IC50 could be ratioed (IC50(compound)/IC50(RHI)). Lower IC50 ratios have more similar binding to RHI (stronger binding to insulin receptor), while higher IC50 ratios have weaker binding to the insulin receptor relative to RHI.

human insulin receptor [3] = molecular target: T2, human insulin receptor; test: as above; remark: listed apart in the source
Method: Cultures of IM-9 cells were centrifuged at 250×g (˜1000 rpm) for 10 min to pellet the cells. Cells were washed once with HBSS or PBS buffer, resuspended in cold FACS staining medium (HBSS/2 mM EDTA/0.1% Na-azide+4% horse serum) to a concentration of 8×10⁶ cells/mL and kept on ice or 4° C. until test solutions were made. The insulin-Fc protein was diluted in FACS buffer in 1:3 serial dilutions as 2× concentrations in 1.2 mL tubes (approx. 60 μL volume of each dilution), and the solutions were kept cold on ice until ready for pipetting.
40 μL of an IM-9 cell suspension (8×10⁶ cells/mL) was then added to each well by multichannel pipette, mixed again gently and incubated on ice for 30 min to allow competitive binding on the insulin receptor on IM-9 cells. […]
(§2) The V-bottom plates containing cells were then analyzed on a Guava 8-HT flow cytometer (Millipore). Biotinylated-RHI binding to insulin receptor was quantitated by the median fluorescence intensity (MFI) of the cells on the FACS FL-2 channel for each concentration of the test compound. […] The % inhibition by test compounds of biotinylated-RHI binding on IM-9 cells was plotted against log concentrations of the test compound, and the resulting IC50 values were calculated using GraphPad Prism (GraphPad Software, La Jolla, CA) for the test compounds.

human insulin receptor [4] = molecular target: T2, human insulin receptor; test: as above; remark: listed apart in the source
Method: as §1
as §2, with “compounds. […]” for “compounds.”

biotinylated canine FcRn = biotinylated canine FcRn (canine, UniProt A0A8I3PFR8 25-347, biotinylated (site not stated)); test: ELISA pH 5.5, fusion protein coated, biotinylated canine FcRn titrated
Method: Insulin-Fc fusion proteins comprising Fc fragments of canine or feline origin were diluted to 10 μg/ml in sodium bicarbonate pH 9.6 buffer and coated in duplicate on Maxisorb ELISA plate strips for 1-2 hours at RT. The strips were then washed 4 times with PBST (PBS/0.1% Tween-20) buffer and blocked with Superblock blocking reagent (ThermoFisher). Strips for FcRn binding were then washed again twice with pH 5.5 MES/NaCl/Tween (50 mM MES/l50 mM NaCl/0.1% Tween-20) buffer before addition of the FcRn reagent (biotinylated canine FcRn; Immunitrack). […] Serial dilutions (1:3× dilutions) of biotinylated FcRn reagent were prepared in pH 5.5 MES/NaCl/Tween/10% Superblock buffer at concentrations from 1000 ng/ml to 0.45 ng/ml and loaded at 100 μL/well using a multichannel pipettor onto the strips coated with the insulin-Fc fusion protein compounds. The assay plate was then incubated for 1 hour at room temperature. FcRn binding strips were washed 4 times with pH 5.5 MES/NaCl/Tween buffer and then loaded with 100 μl/well […] diluted 1:10000 in pH 5.5 MES/NaCl/10% Superblock buffer. After incubating for 45 minutes, strips were washed again 4 times with pH 5.5 MES/NaCl/Tween buffer. TMB was finally added to reveal the bound biotinylated-canine FcRn reagent, and the color development was stopped with the ELISA stop reagent. The plate was read in an ELISA plate reader at a wavelength of 450 nm. The OD values (proportional to the binding of canine-FcRn to the insulin-Fc fusion protein test compounds) were plotted against log concentrations of FcRn added to each well to generate binding curves using GraphPad Prism software. EC50 values for each binding curve were calculated to compare between different compounds.

T2 sequence (P06213 28-1382): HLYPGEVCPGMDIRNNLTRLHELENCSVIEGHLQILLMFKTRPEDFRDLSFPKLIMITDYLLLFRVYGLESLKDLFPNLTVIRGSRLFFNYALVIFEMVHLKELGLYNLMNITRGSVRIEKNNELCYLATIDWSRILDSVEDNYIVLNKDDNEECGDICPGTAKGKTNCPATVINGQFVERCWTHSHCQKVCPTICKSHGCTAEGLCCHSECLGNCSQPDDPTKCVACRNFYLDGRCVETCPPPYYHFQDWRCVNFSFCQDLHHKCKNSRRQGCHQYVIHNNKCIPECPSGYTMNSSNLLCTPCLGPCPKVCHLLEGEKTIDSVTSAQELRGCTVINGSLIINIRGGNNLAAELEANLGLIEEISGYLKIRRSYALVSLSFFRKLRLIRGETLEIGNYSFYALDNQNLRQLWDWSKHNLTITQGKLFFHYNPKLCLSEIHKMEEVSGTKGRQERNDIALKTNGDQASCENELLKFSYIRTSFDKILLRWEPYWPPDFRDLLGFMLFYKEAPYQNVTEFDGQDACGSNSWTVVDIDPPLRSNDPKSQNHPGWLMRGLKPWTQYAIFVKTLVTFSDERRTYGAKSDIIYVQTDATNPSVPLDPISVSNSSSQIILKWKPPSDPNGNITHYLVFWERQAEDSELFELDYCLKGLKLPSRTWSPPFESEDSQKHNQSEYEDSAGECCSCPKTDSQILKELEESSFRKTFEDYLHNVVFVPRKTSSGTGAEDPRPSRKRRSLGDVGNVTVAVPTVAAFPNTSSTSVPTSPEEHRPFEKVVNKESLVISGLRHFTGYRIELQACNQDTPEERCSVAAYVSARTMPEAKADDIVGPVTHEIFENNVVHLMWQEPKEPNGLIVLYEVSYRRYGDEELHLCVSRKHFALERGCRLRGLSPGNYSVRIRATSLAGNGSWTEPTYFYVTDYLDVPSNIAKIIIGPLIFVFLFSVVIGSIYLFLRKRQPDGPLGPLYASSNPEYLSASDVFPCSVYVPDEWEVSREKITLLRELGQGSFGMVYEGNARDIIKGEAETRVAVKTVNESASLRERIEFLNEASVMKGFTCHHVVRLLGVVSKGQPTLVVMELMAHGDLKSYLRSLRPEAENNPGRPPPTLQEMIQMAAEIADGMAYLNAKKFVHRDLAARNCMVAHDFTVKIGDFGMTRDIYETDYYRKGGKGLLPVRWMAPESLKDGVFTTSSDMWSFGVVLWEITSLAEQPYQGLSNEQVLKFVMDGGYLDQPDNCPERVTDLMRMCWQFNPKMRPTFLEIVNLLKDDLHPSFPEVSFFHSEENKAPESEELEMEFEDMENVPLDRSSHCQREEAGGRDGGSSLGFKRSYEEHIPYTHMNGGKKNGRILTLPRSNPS
T1 sequence (P12314 16-288 limits assumed): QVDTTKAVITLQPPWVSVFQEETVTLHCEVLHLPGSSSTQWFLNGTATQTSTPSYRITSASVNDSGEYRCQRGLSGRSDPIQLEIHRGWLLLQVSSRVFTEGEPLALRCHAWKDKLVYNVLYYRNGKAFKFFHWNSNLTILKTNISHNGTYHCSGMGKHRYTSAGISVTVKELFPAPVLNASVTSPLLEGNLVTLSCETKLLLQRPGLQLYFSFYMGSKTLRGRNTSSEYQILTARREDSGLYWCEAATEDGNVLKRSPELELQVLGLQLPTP
Sequence of biotinylated canine FcRn (A0A8I3PFR8 entry or part of it): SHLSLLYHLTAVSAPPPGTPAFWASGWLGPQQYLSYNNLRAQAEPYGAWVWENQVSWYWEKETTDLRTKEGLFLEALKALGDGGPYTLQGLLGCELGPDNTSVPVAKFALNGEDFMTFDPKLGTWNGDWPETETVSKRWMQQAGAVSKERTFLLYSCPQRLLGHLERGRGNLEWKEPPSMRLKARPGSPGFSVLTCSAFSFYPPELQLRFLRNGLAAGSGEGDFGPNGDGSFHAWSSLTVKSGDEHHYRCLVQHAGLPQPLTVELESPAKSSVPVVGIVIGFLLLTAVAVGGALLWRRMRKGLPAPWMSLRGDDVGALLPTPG

OD450 nm Minus Assay Background [1]: 0.311 OD450
OD450 nm at a Fc(gamma)RI concentration of 3000 (ng/mL) [1]: 0.368 OD450
Ratio to SEQ ID NO: 52 [1]: 0.84 ratio
IC50 (human insulin receptor [2]): 2340 nM
IC50 (human insulin receptor [3]): 2340 nM
IC50 (human insulin receptor [4]): 2340 nM
EC50 (biotinylated canine FcRn): 0.599 µg/mL
B1: insulin-Fc fusion protein of SEQ ID NO: 32 (Fc fusion)
chain: FVNQHLCGSHLVEALELVCGERGFHYGGGGGGSGGGGGIVEQCCTSTCSLDQLENYCGGGGGQGGGGQGGGGQGGGGGDCPKCPAPEMLGGPSVFIFPPKPKDTLLIARTPEVTCVVVDLDPEDPEVQISWFVDGKQMQTAKTQPREEQFNGTYRVVSVLPIGHQDWLKGKQFTCKVNNKALPSPIERTISKARGQAHQPSVYVLPPSREELSKNTVSLTCLIKDFFPPDIDVEWQSNGQQEPESKYRTTPPQLDEDGSYFLYSKLSVDKSRWQRGDTFICAVMHEALHNHYTQESLSHSPG
notes: homodimer; also called 218d

— patent US20240101635A1 (AKSTON BIOSCIENCES, published 2024)
